This passage reports Kd, koff and kon results from US20120095193A1 (published 2012).

In general, Kd refers to a measure of binding affinity in units of concentration. Higher therefore signals weaker binding. Broadly, the koff is a measure of how fast the partners let go of each other. Low values mean slow dissociation, high ones fast dissociation. As usually defined, the kon is a measure of how fast the partners come together. A lower kon goes with slower complex formation.

For this assay, the target named is T1, human ADAMTS5 (human, UniProt Q9UNA0 262-622, limits assumed).
T1 construct: Octet and ELISA used 'recombinant human ADAMTS5'; also called recombinant human ADAMTS5; ADAMTS5 (R&D Systems 2198-AD)
T1 sequence: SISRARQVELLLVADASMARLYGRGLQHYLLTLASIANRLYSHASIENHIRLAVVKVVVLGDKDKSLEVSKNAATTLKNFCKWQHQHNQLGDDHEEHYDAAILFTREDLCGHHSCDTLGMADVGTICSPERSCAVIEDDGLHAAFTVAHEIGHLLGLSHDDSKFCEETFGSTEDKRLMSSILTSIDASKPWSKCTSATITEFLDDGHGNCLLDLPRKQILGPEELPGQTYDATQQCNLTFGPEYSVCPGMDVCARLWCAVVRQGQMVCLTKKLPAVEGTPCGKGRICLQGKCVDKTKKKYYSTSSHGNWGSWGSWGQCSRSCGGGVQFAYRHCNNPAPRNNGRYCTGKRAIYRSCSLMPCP
In words: Biacore, mAb from culture supernatant captured on anti-human IgG, ADAMTS5 (R&D 2198-AD) at 64 nM, 1:1 fit. Here is the method: Anti-human IgG (Biacore™, BR-1008-39) was immobilized on a CM5 chip by primary amine coupling. This surface was then used to capture the humanized antibodies, ADAMTS5 (R&D Systems 2198-AD) was then passed over the captured antibody at a single concentration of 64 nM, regeneration was carried out using 100 mM phosphoric acid followed by 3M MgCl₂. The binding curves were double referenced with buffer injection (i.e. 0 nM) and the data was fitted to the T100 analysis software using the 1:1 model. The run was carried out at 25° C., using HBS-EP as the running buffer. All antibodies were captured from tissue culture supernatants unless specified.
On the technique in general: SPR reads the build-up and loss of mass on a sensor chip optically.

B1: BPC1644 (antibody, human IgG1, kappa, V domains shown)
VH: EVQLVESGGGLVQPGGSLRLSCAASGFTSSDAWMDWVRQAPGKGLEWVAEIRNKANNHARHYAESVKGRFTISRDNAKNSLYLQMNSLRAEDTAVYYCTRTYYYGSSYGYCDVWGQGTLVTVSS
VL: DIQMTQSPSSLSASVGDRVTITCRTSENIYSYLAWYQQKPGKAPKLLVYNAKTLAEGVPSRFSGSGSGTDFTLTISSLQPEDFATYYCQHHYGTPWTFGQGTKLEIKR
notes: Humanized, human gamma 1 / kappa; also called 7B4 H3L1
For B1, the Kd is 1.05 nM, the koff is 0.00157 s⁻¹ and the kon came out at 1.49e+06 M⁻¹ s⁻¹.

B2: BPC1638 (antibody, human IgG1, kappa, V domains shown)
VH: EVQLVESGGGLVQPGGSLRLSCAASGFTSSDAWMDWVRQAPGKGLEWVAEIRNKANNHARHYAESVKGRFTISRDDAKNSLYLQMNSLRAEDTAVYYCTRTYYYGSSYGYCDVWGQGTLVTVSS
VL: DIQMTQSPSSLSASVGDRVTITCRTSENIYSYLAWYQQKPGKAPKLLIYNAKTLAEGVPSRFSGSGSGTDFTLTISSLQPEDFATYYCQHHYGTPWTFGQGTKLEIKR
notes: Humanized, human gamma 1 / kappa; also called 7B4 H4L0
Consider B2, for which the Kd is 0.95 nM, the off-rate constant (koff) is 0.000831 s⁻¹ and the kon was 875000 M⁻¹ s⁻¹.

B3: BPC1637 (antibody, human IgG1, kappa, V domains shown)
VH: EVQLVESGGGLVQPGGSLRLSCAASGFTSSDAWMDWVRQAPGKGLEWVAEIRNKANNHARHYAESVKGRFTISRDNAKNSLYLQMNSLRAEDTAVYYCTRTYYYGSSYGYCDVWGQGTLVTVSS
VL: DIQMTQSPSSLSASVGDRVTITCRTSENIYSYLAWYQQKPGKAPKLLIYNAKTLAEGVPSRFSGSGSGTDFTLTISSLQPEDFATYYCQHHYGTPWTFGQGTKLEIKR
notes: Humanized, human gamma 1 / kappa; also called 7B4 H3L0
B3 had a Kd of 0.86 nM, a koff of 0.000963 s⁻¹ and a kon of 1.12e+06 M⁻¹ s⁻¹.

B4: BPC1640 (antibody, human IgG1, kappa, V domains shown)
VH: EVQLVESGGGLVQPGGSLRLSCAASGFTSSDAWMDWVRQAPGKGLEWVAEIRNKANNHARHYAESVKGRFTISRDDAKNSVYLQMNSLRAEDTAVYYCTRTYYYGSSYGYCDVWGQGTLVTVSS
VL: DIQMTQSPSSLSASVGDRVTITCRTSENIYSYLAWYQQKPGKAPKLLIYNAKTLAEGVPSRFSGSGSGTDFTLTISSLQPEDFATYYCQHHYGTPWTFGQGTKLEIKR
notes: Humanized, human gamma 1 / kappa; also called 7B4 H6L0
For B4, the Kd stood at 1.08 nM, the koff turned out to be 0.000849 s⁻¹ and the kon is 787000 M⁻¹ s⁻¹.

B5: BPC1635 (antibody, human IgG1, kappa, V domains shown)
VH: EVQLVESGGGLVQPGGSLRLSCAASGFTFSDAWMDWVRQAPGKGLEWVAEIRNKANNHARHYAESVKGRFTISRDNAKNSLYLQMNSLRAEDTAVYYCTRTYYYGSSYGYCDVWGQGTLVTVSS
VL: DIQMTQSPSSLSASVGDRVTITCRTSENIYSYLAWYQQKPGKAPKLLIYNAKTLAEGVPSRFSGSGSGTDFTLTISSLQPEDFATYYCQHHYGTPWTFGQGTKLEIKR
notes: Humanized, human gamma 1 / kappa; also called 7B4 H1L0
As to B5, the affinity, expressed as Kd, was 1.17 nM; the koff came to 0.000826 s⁻¹; the kon is 704000 M⁻¹ s⁻¹.

B6: BPC1636 (antibody, human IgG1, kappa, V domains shown)
VH: EVQLVESGGGLVQPGGSLRLSCAASGFTSSDAWMDWVRQAPGKGLEWVAEIRNKANNHARHYAESVKGRFTISRDNAKNSLYLQMNSLRAEDTAVYYCARTYYYGSSYGYCDVWGQGTLVTVSS
VL: DIQMTQSPSSLSASVGDRVTITCRTSENIYSYLAWYQQKPGKAPKLLIYNAKTLAEGVPSRFSGSGSGTDFTLTISSLQPEDFATYYCQHHYGTPWTFGQGTKLEIKR
notes: Humanized, human gamma 1 / kappa; also called 7B4 H2L0
With B6, binding was characterised by a dissociation constant (Kd) of 0.836 nM, the koff came out at 0.000896 s⁻¹ and the kon came to 1.07e+06 M⁻¹ s⁻¹.

B7: BPC1639 (antibody, human IgG1, kappa, V domains shown)
VH: EVQLVESGGGLVQPGGSLRLSCAASGFTSSDAWMDWVRQAPGKGLEWVAEIRNKANNHARHYAESVKGRFTISRDNAKNSVYLQMNSLRAEDTAVYYCTRTYYYGSSYGYCDVWGQGTLVTVSS
VL: DIQMTQSPSSLSASVGDRVTITCRTSENIYSYLAWYQQKPGKAPKLLIYNAKTLAEGVPSRFSGSGSGTDFTLTISSLQPEDFATYYCQHHYGTPWTFGQGTKLEIKR
notes: Humanized, human gamma 1 / kappa; also called 7B4 H5L0
In turn, B7 came in with a Kd of 0.964 nM, a koff of 0.000894 s⁻¹ and a kon of 927000 M⁻¹ s⁻¹.

B8: BPC1641 (antibody, human IgG1, kappa, V domains shown)
VH: EVQLVESGGGLVQPGGSLRLSCAASGFTFSDAWMDWVRQAPGKGLEWVAEIRNKANNHARHYAESVKGRFTISRDNAKNSLYLQMNSLRAEDTAVYYCARTYYYGSSYGYCDVWGQGTLVTVSS
VL: DIQMTQSPSSLSASVGDRVTITCRTSENIYSYLAWYQQKPGKAPKLLVYNAKTLAEGVPSRFSGSGSGTDFTLTISSLQPEDFATYYCQHHYGTPWTFGQGTKLEIKR
notes: Humanized, human gamma 1 / kappa; also called 7B4 H0L1
As to B8, binding was characterised by a dissociation constant (Kd) of 1.32 nM, the koff worked out at 0.000945 s⁻¹ and the kon was determined as 714000 M⁻¹ s⁻¹.

B9: BPC1643 (antibody, human IgG1, kappa, V domains shown)
VH: EVQLVESGGGLVQPGGSLRLSCAASGFTSSDAWMDWVRQAPGKGLEWVAEIRNKANNHARHYAESVKGRFTISRDNAKNSLYLQMNSLRAEDTAVYYCARTYYYGSSYGYCDVWGQGTLVTVSS
VL: DIQMTQSPSSLSASVGDRVTITCRTSENIYSYLAWYQQKPGKAPKLLVYNAKTLAEGVPSRFSGSGSGTDFTLTISSLQPEDFATYYCQHHYGTPWTFGQGTKLEIKR
notes: Humanized, human gamma 1 / kappa; also called 7B4 H2L1
The molecule B9 had a Kd of 1.05 nM, a koff of 0.00143 s⁻¹ and a kon of 1.36e+06 M⁻¹ s⁻¹.

B10: BPC1642 (antibody, human IgG1, kappa, V domains shown)
VH: EVQLVESGGGLVQPGGSLRLSCAASGFTFSDAWMDWVRQAPGKGLEWVAEIRNKANNHARHYAESVKGRFTISRDNAKNSLYLQMNSLRAEDTAVYYCTRTYYYGSSYGYCDVWGQGTLVTVSS
VL: DIQMTQSPSSLSASVGDRVTITCRTSENIYSYLAWYQQKPGKAPKLLVYNAKTLAEGVPSRFSGSGSGTDFTLTISSLQPEDFATYYCQHHYGTPWTFGQGTKLEIKR
notes: Humanized, human gamma 1 / kappa; also called 7B4 H1L1
On to B10, for which binding was characterised by a dissociation constant (Kd) of 1.36 nM, the koff stood at 0.00121 s⁻¹ and the kon was found to be 887000 M⁻¹ s⁻¹.

B11: BPC1656 (antibody, human IgG1, kappa, V domains shown)
VH: EVQLLESGGGLVQPGGSLRLSCAASGFTFSDAWMDWVRQAPGKGLEWVSEIRHKANDHAIFYDESVKGRFTISRDNSKNTLYLQMNSLRAEDTAVYYCTSPFAYWGQGTLVTVSS
VL: DIQMTQSPSSLSASVGDRVTITCKASQSVGTTIVWYQQKPGKAPKLLIYSASNRHTGVPSRFSGSGSGTDFTLTISSLQPEDFATYYCQQYTSYPFTFGQGTKLEIKR
notes: Humanized, human gamma 1 / kappa; also called 12F4 H1L0
For the molecule B11, binding was put at a Kd of 0.624 nM, the koff stood at 0.000395 s⁻¹ and the kon stood at 633000 M⁻¹ s⁻¹.

B12: BPC1658 (antibody, human IgG1, kappa, V domains shown)
VH: EVQLLESGGGLVQPGGSLRLSCAASGFTFSDAWMDWVRQAPGKGLEWVAEIRHKANDHAIFYDESVKGRFTISRDNSKNTVYLQMNSLRAEDTAVYYCTSPFAYWGQGTLVTVSS
VL: DIQMTQSPSSLSASVGDRVTITCKASQSVGTTIVWYQQKPGKAPKLLIYSASNRHTGVPSRFSGSGSGTDFTLTISSLQPEDFATYYCQQYTSYPFTFGQGTKLEIKR
notes: Humanized, human gamma 1 / kappa; also called 12F4 H3L0
Molecule B12 yielded a Kd of 0.312 nM, a koff of 0.00014 s⁻¹ and a kon of 448000 M⁻¹ s⁻¹.

B13: BPC1657 (antibody, human IgG1, kappa, V domains shown)
VH: EVQLLESGGGLVQPGGSLRLSCAASGFTFSDAWMDWVRQAPGKGLEWVSEIRHKANDHAIFYDESVKGRFTISRDDSKNTLYLQMNSLRAEDTAVYYCTSPFAYWGQGTLVTVSS
VL: DIQMTQSPSSLSASVGDRVTITCKASQSVGTTIVWYQQKPGKAPKLLIYSASNRHTGVPSRFSGSGSGTDFTLTISSLQPEDFATYYCQQYTSYPFTFGQGTKLEIKR
notes: Humanized, human gamma 1 / kappa; also called 12F4 H2L0
Regarding B13, the affinity, expressed as Kd, was 0.129 nM; the off-rate constant (koff) is 7.54e-05 s⁻¹; the kon worked out at 585000 M⁻¹ s⁻¹.
